Assay results: patent publication US20110118181A1 (INSTITUT DE RECHERHES CLINIQUES DE MONTREAL, published 2011)
Where “and” joins values, the source holds several entries; their conditions need not be identical. Equal values may be shown once.

Legend:
[1] = molecular target: T1, AnxA2 ΔR1-HA (deletion of aa 37-108) (human, UniProt P07355 1-339); assay: Far Western blot of HEK293 lysates
T1 construct: also called Δ37-108 (R1)

[2] = molecular target: T2, ˜33 kDa protein of COS-1 cells, identified as monkey Annexin A2 (AnxA2; XP-001155637) (monkey); assay: Far Western blot of COS-1 lysates
T2 construct: Denatured on nitrocellulose in Far Western blots; native in co-IP; The ˜33 kDa band was also seen in BSC40 and HuH7 lysates; also called endogenous Annexin A2
Method: All of these were detected by the HRP-tagged V5 mAb. (B) The COS-1 cells soluble fraction (supernatant S3; 3 μg protein) was analyzed by Far Western blot and compared to 30 μg protein loads from other subcellular fractions. […] (D) For competition experiments, purified PCSK9-His or CHRD-His were added to the PCSK9-V5 conditioned media used for Far Western blotting. (E) PCSK9-V5-binding requirements were tested by adding 1M NaCl, 10 mg/ml heparin, 1M NaCl+10 mg/ml heparin, or 100 mM EDTA to the PCSK9-V5 conditioned media used for Far Western blotting. Heavy arrows point to the migration position of the ˜33 kDa protein, and the light arrow to that of the ˜45 kDa protein. (−) denotes a control lane where nothing was added to the Far Western blotting media;
Lysates (20 to 30 μg protein), media or purified AnxA2-(His)₆ were heated in reducing or non-reducing Laemmli sample buffer, resolved by SDS-PAGE on 8% glycine gels and electro-transferred onto nitrocellulose membranes (GE Healthcare). Following 1 h incubation in 5% skim milk in Tris-Buffered Saline-0.1% Tween (TBST), membranes where incubated with conditioned media of CHO-K1 cells overexpressing either an empty vector (pIRES-V5), PC5A-V5, CHRD-V5, pIRES-D374Y, PCSK9-V5 or its V5-tagged mutants, or incubated with purified AnxA2-(His)₆ for 3 h at room temperature. […]

[3] = molecular target: T3, PCSK9-V5 (full-length human PCSK9 with C-terminal V5 tag) (human, UniProt Q8NBP7 31-692); assay: co-immunoprecipitation with anti-V5 from co-transfected CHO-K1 cells
T3 construct: Used as conditioned medium of CHO-K1 cells (Far Western, pull-down) or co-expressed in cells (co-IP); The background says PCSK9 is secreted as a prosegment-PCSK9 heterodimer; also called full-length (FL) PCSK9-V5; native PCSK9; not shown: C-terminal V5 tag
Method: (§1) FIG. 4. Characterization of the interaction of PCSK9 with AnxA2. (A) PCSK9-V5 Far Western blot of lysates of COS-1 cells, wild type (WT) CHO-K1 cells, CHO-K1 cells overexpressing an empty vector (pIRES), AnxA1 or AnxA2. (B) Poly-histidine pull-down assay. Purified native AnxA2-(His)₆ or AnxA1-(His)₆ were immobilized on cobalt chelate beads and incubated with PCSK9-V5. […] PCSK9 (heavy arrow) and its furin-cleaved form (PCSK9-Δ218; light arrow) were pulled-down by AnxA2. (C) Co-immunoprecipitation experiments of CHO-K1 cells co-transfected with PCSK9-V5 and either AnxA1-HA, AnxA2-HA or with AnxA2-HA and p11. […] Expression of the transfected constructs was analyzed by Western blotting of cell lysates using the anti-V5-HRP or anti-HA-HRP antibodies. (D, left panel) PCSK9-V5 Far Western blots of purified AnxA2-(His)₆ in the absence or presence of reducing agents. Note that in non-reducing conditions, PCSK9-V5 binds both the dimer and monomer forms of AnxA2. (D, right panel) Western blots of the purified AnxA2-(His)₆ using the anti-AnxA2 mAb in non-reducing or reducing conditions. (E, upper panel) Media from CHO-K1 cells expressing PCSK9-V5 or the CHRD-V5 were separated by SDS-PAGE (8%), transferred onto nitrocellulose, incubated with purified AnxA2-(His)₆ and probed with the anti-His-HRP antibody. […]

[4] = molecular target: T3, PCSK9-V5 (full-length human PCSK9 with …); assay: Far Western blot of HEK293 lysates
[5] = molecular target: T3, PCSK9-V5 (full-length human PCSK9 with …); assay: Far Western blot of lysates of CHO cells overexpressing AnxA1
Method: Lysates (20 to 30 μg protein), media or purified AnxA2-(His)₆ were heated in reducing or non-reducing Laemmli sample buffer, resolved by SDS-PAGE on 8% glycine gels and electro-transferred onto nitrocellulose membranes (GE Healthcare). Following 1 h incubation in 5% skim milk in Tris-Buffered Saline-0.1% Tween (TBST), membranes where incubated with conditioned media of CHO-K1 cells overexpressing either an empty vector (pIRES-V5), PC5A-V5, CHRD-V5, pIRES-D374Y, PCSK9-V5 or its V5-tagged mutants, or incubated with purified AnxA2-(His)₆ for 3 h at room temperature. […] For competition experiments, 10 μg of His-tagged PCSK9 or CHRD were added to the PCSK9-V5 media before Far Western blotting. For PCSK9 binding requirements with the ˜33 kDa protein, 1M NaCl, 10 mg/ml heparin, 1M NaCl+10 mg/ml heparin, or 100 mM EDTA were added to the PCSK9-V5 conditioned media used for Far Western blotting.

[6] = molecular target: T4, purified biotin-conjugated PCSK9 (UniProt Q8NBP7 31-692, limits assumed, biotin-conjugated (site not stated)); assay: AlphaScreen competition of biotin-PCSK9 binding to His6-LDLR ectodomain
T4 construct: Coated on streptavidin donor beads; also called PCSK9 (AlphaScreen donor beads)
Method: AlphaScreen® (Perkin Elmer) streptavidin donor beads were coated with purified biotin-conjugated PCSK9 and AlphaScreen® nickel chelate acceptor beads were coated with purified His6-conjugated LDLR ectodomain. Competition in the AlphaScreen® PCSK9-LDLR interaction assay was measured, in the presence of increasing concentrations of AnxA2-derived peptides, as a reduction of fluorescence.

[7] = molecular target: T3, PCSK9-V5 (full-length human PCSK9 with …); assay: poly-histidine pull-down, AnxA1-(His)6 on cobalt chelate beads, PCSK9-V5 medium
Method: as §1, with “conditions.” for “conditions. (E, upper panel) Media from CHO-K1 cells expressing PCSK9-V5 or the CHRD-V5 were separated by SDS-PAGE (8%), transferred onto nitrocellulose, incubated with purified AnxA2-(His)₆ and probed with the anti-His-HRP antibody.”
20 μg of purified AnxA2-(His)₆ or AnxA1-(His)₆ or no proteins (for negative control) were immobilized onto a cobalt chelate resin (Thermo Scientific). […] Supernatants were analyzed by Western blot as described above using the anti-V5-HRP or anti-His-HRP antibodies.

T2 sequence (P07355 2-339): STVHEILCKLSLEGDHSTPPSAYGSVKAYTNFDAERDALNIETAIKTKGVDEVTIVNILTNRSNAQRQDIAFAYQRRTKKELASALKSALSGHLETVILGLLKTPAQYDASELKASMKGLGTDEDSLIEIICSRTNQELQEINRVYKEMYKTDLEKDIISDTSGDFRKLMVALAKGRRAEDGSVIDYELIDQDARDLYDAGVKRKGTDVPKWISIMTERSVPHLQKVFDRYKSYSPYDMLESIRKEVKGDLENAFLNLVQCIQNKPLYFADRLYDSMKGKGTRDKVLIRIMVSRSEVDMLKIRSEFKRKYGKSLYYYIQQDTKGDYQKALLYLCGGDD

B1: CHRD-V5 (C-terminal Cys-His-rich domain of PCSK9, V5-tagged) (other, human, UniProt Q8NBP7 455-692, looked up)
chain: LFCRTVWSAHSGPTRMATAVARCAPDEELLSCSSFSRSGKRRGERMEAQGGKLVCRAHNAFGGEGVYAIARCCLLPQANCSVHTAPPAEASMGTRVHCHQQGHVLTGCSSHWEVEDLGTHKPPVLRPRGQPNQCVGHREASIHASCCHAPGLECKVKEHGIPAPQEQVTVACEEGWTLTGCSALPGTSHVLGAYAVDNTCVVRSRDVSTTGSTSEGAVTAVAICCRSRHLAQASQELQ
notes: domain: CHRD; Conditioned medium of CHO-K1 cells; also called CHRD alone; not shown: C-terminal V5 tag
binding result [1]: no binding
fold binding against full length PCSK9 [2]: 3 fold

B2: AnxA1-HA (human AnxA1 with C-terminal HA epitope) (other)
chain: MAMVSEFLKQAWFIENEEQEYVQTVKSSKGGPGSAVSPYPTFNPSSDVAALHKAIMVKGVDEATIIDILTKRNNAQRQQIKAAYLQETGKPLDETLKKALTGHLEEVVLALLKTPAQFDADELRAAMKGLGTDEDTLIEILASRTNKEIRDINRVYREELKRDLAKDITSDTSGDFRNALLSLAKGDRSEDFGVNEDLADSDARALYEAGERRKGTDVNVFNTILTTRSYPQLRRVFQKYTKYSKHDMNKVLDLELKGDIEKCLTAIVKCATSKPAFFAEKLHQAMKGVGTRHKALIRIMVSRSEIDMNDIKAFYQKMYGISLCQAILDETKGDYEKILVALCGGNYPYDVPDYA
binding result [3]: no binding

B3: AnxA2 ΔR3-HA (deletion of aa 193-268) (other)
chain: MSTVHEILCKLSLEGDHSTPPSAYGSVKAYTNFDAERDALNIETAIKTKGVDEVTIVNILTNRSNAQRQDIAFAYQRRTKKELASALKSALSGHLETVILGLLKTPAQYDASELKASMKGLGTDEDSLIEIICSRTNQELQEINRVYKEMYKTDLEKDIISDTSGDFRKLMVALAKGRRAEDGSVIDYELIDYFADRLYDSMKGKGTRDKVLIRIMVSRSEVDMLKIRSEFKRKYGKSLYYYIQQDTKGDYQKALLYLCGGDDYPYDVPDYA
notes: also called Δ193-268 (R3)
binding result [4]: binds

B4: AnxA2 ΔR4-HA (deletion of aa 269-339) (other)
chain: MSTVHEILCKLSLEGDHSTPPSAYGSVKAYTNFDAERDALNIETAIKTKGVDEVTIVNILTNRSNAQRQDIAFAYQRRTKKELASALKSALSGHLETVILGLLKTPAQYDASELKASMKGLGTDEDSLIEIICSRTNQELQEINRVYKEMYKTDLEKDIISDTSGDFRKLMVALAKGRRAEDGSVIDYELIDQDARDLYDAGVKRKGTDVPKWISIMTERSVPHLQKVFDRYKSYSPYDMLESIRKEVKGDLENAFLNLVQCIQNKPLYPYDVPDYA
notes: also called Δ269-339 (R4)
binding result [4]: binds

B5: human Annexin A1 (AnxA1), untagged (other, UniProt P04083 2-346, looked up)
chain: AMVSEFLKQAWFIENEEQEYVQTVKSSKGGPGSAVSPYPTFNPSSDVAALHKAIMVKGVDEATIIDILTKRNNAQRQQIKAAYLQETGKPLDETLKKALTGHLEEVVLALLKTPAQFDADELRAAMKGLGTDEDTLIEILASRTNKEIRDINRVYREELKRDLAKDITSDTSGDFRNALLSLAKGDRSEDFGVNEDLADSDARALYEAGERRKGTDVNVFNTILTTRSYPQLRRVFQKYTKYSKHDMNKVLDLELKGDIEKCLTAIVKCATSKPAFFAEKLHQAMKGVGTRHKALIRIMVSRSEIDMNDIKAFYQKMYGISLCQAILDETKGDYEKILVALCGGN
notes: Overexpressed in CHO cells as control
binding result [5]: no binding

B6: peptide No 896970 (73-mer AnxA2 R1 peptide extending from amino acids 25 to 97) (peptide)
peptide: GSVKAYTNFDAERDALNIETAIKTKGVDEVTIVNILTNRSNAQRQDIAFAYQRRTKKELASALKSALSGHLET
notes: also called AnxA2 25-97 peptide
IC50 [6]: 500 nM to 1 µM (2×) and 750 nM

B7: purified AnxA1-(His)6 (other)
chain: MAMVSEFLKQAWFIENEEQEYVQTVKSSKGGPGSAVSPYPTFNPSSDVAALHKAIMVKGVDEATIIDILTKRNNAQRQQIKAAYLQETGKPLDETLKKALTGHLEEVVLALLKTPAQFDADELRAAMKGLGTDEDTLIEILASRTNKEIRDINRVYREELKRDLAKDITSDTSGDFRNALLSLAKGDRSEDFGVNEDLADSDARALYEAGERRKGTDVNVFNTILTTRSYPQLRRVFQKYTKYSKHDMNKVLDLELKGDIEKCLTAIVKCATSKPAFFAEKLHQAMKGVGTRHKALIRIMVSRSEIDMNDIKAFYQKMYGISLCQAILDETKGDYEKILVALCGGNHHHHHH
binding result [7]: no binding
